# According to patent US7531500B2, “Preventing airway mucus production by administration of EGF-R antagonists” (The Regents of the University of California, priority 1998, dated 2009):
# B1: IL-13: recombinant murine IL-13 in rats; recombinant human IL-13 in chemotaxis (R&D systems) (protein, UniProt P20109 19-131, looked up)
# Interleukin-13: APGPVPRSVSLPLTLKELIEELSNITQDQTPLCNGSMVWSVDLAAGGFCVALDSLTNISNCNAIYRTQRILHGLCNRKAPTTVSSLPDTKIEVAHFITKLLSYTKQLFRHGPF
# Assays:
# NCI-H292 cells = assay: Immunoassay of MUC5AC protein in NCI-H292 cells (Example 2); assay type: cell-based, human; conditions: 1 h incubation, protein at 24 h; IL-8 10^-8 M, fMLP 10^-8 M, TNFα 20 ng/ml
# [1] = system: rat nasal septal epithelium; assay: fMLP-induced degranulation and regranulation of goblet cells in rat nasal epithelium; assay type: in vivo
# Method: Nasal Tissue Preparation. At various times after inhalation, rats were anesthetized with pentobarbital sodium (65 mg/kg, i.p.). The heart of the animal was exposed, a blunt-ended needle was inserted from the apex of the left ventricle into the ascending aorta, and the systemic circulation was perfused with 1% paraformaldehyde. An incision in the right atrium provided an outlet for the fixative. The eyes, lower jaws, skin, and musculature were removed, and the head was immersed in a large volume of the same fixative for 24 h. […]
# Counting of Neutrophils in Nasal Epithelium. Neutrophils were counted in high power fields of the epithelial layer stained with 3,3′-diaminobenzidine at magnification ×400. The number of neutrophils within the nasal sepal epithelium (from the basement membrane to cell apices) was determined by counting the number of nuclear profiles per unit of basal lamina length.
# Quantification of Goblet Cell Degranulation and Regranulation. To assess goblet cell degranulation and regranulation, we measured the volume density of Alcian blue/PAS-stained mucosubstances on the mucosal surface epithelium using a semiautomatic imaging system according to a previously published method. […] Images of the nasal epithelium were recorded in high power fields with a phase contrast lens at x400, using an IMAXX Video System (PDI, Redmond, Wash.). […]
# pathogen-free rats = assay: IL-13-induced goblet cell metaplasia in rat airways; assay type: in vivo
# Method: Animals were anesthetized with pentobarbital [Nembutal sodium, 50 mg/kg, intraperitoneally (ip), Abbott Laboratories, North Chicago, Ill.] and allowed to breathe spontaneously. Vehicle (phosphate buffer solution, PBS) or IL-13 was instilled intratracheally via a 20-gauge Angiocath catheter (Beckton Dickinson, Sandy, Utah) through the mouth, while the laryngeal area was visualized using a high-intensity illuminator (FiberLite; Dolan Jenner Industries, Inc., Lawrence, Mass.). The […] tissues were examined 48 hours after instillation of IL-13. Various concentrations of IL-13 (recombinant murine IL-13; 5, 50, 100, and 500 ng/rat, R&D systems, Minneapolis, Minn.) were instilled into the trachea in […]. Sterile PBS (200 μl) was instilled into the trachea as controls. For examination of the relationship between IL-13-induced GC metaplasia and activation of EGFR, animals were pretreated 1 d before instillation of IL-13 and daily thereafter with a selective EGFR tyrosine kinase inhibitor (BIBX 1522; 1-30 mg/kg/day, ip; Boehringer Ingelheim, Ingelheim, Germany). Animals were euthanized 48 hours after instillation of IL-13. In preliminary studies, we noted that IL-13 causes leukocyte recruitment into the airways. We hypothesized that leukocyte recruitment results from IL-13-induced chemoattractant release from epithelium, and that this recruitment is involved in the IL-13-induced EGFR cascade leading to GC metaplasia. Groups of animals were euthanized 4, 8, 16, 24, and 48 hours after instillation of IL-13 (500 ng), and leukocytes were counted in airway tissue. […] Sigma chemical Co., St Louis, Mo.] or with a blocking antibody to interleukin-8 (IL-BAb; rabbit anti-human IL-8 antibody; Biosource, Camarillo, Calif.). […] In another series of studies, we instilled IL-8 Ab (10 μg/rat) intratracheally, along with IL-13; we repeated the instillation of anti-human IL-8 blocking antibody at 12 hour intervals until the animals were euthanized. Animals were euthanized with a lethal dose of pentobarbital (Nembutal sodium, 200 mg/kg, ip, Abbott Laboratories, North Chicago, Ill.), and the systemic circulation was perfused with 1% paraformaldehyde in Diethylpyrocarbonate (DEPC, Sigma chemical Co., St Louis, Mo.)-treated PBS via the left ventricle. For frozen sections, […] tissues were removed, placed in 4% paraformaldehyde overnight, and then placed in 30% sucrose for cryoprotection. The tissues were embedded in optimal cutting temperature (OCT, […]., Inc., Torrance, Calif.) compound. For plastic or paraffin sections, tissues were placed in 4% paraformaldehyde overnight, dehydrated with ethanol, and embedded in JB-4 plus monomer solution A (Polysclences, Inc., Warrington, Pa.) or in paraffin. The embedded tissues were cut as cross sections 4 μm thick and placed on glass slides. In all studies, the carina was examined to obtain consistent sampling. We measured AB/PAS-positive areas and total epithelial area, and we expressed the results as the percentage of AB/PAS area to total epithelial area. The analysis was performed with the public domain NIH IMAGE program (developed at the U.S. National Institutes of Health and available by anonymous FTP from zippy.nimh.gov. or floppy disk from the National Technical Information Service, Springfield, Va., part number PB95-500195GEI). […] For immunohistochemical localization of […], we used mouse anti-human IL-8 antibody (1:20; Biosource, Camarillo, Calif.). The sections were then incubated with biotinylated horse anti-mouse IgG (Vector Laboratories, Burlingame, Calif.) at 1:200 dilution for 1 hour at room temperature. Bound antibody was visualized according to standard protocols for avidin-biotin-peroxidase complex method. The measurement of MUC5AC protein also utilized the same method used for quantitative measurement of GC metaplasia in the epithelium. Animals were euthanized 4, 8, 16, 24, and 48 hours after instillation of IL-13 (500 ng), and leukocytes were counted in airway tissue. […]
# human neutrophils = assay: Chemotaxis of human neutrophils (microchemotaxis chamber); assay type: cell-based; conditions: 10^-10, 10^-9, 5×10^-9 M
# Method: Human neutrophils were purified from peripheral blood obtained from healthy donors. Neutrophil isolation was performed by standard techniques of Ficoll-Hypaque gradient separation, dextran sedimentation, and hypotonic lysis of erythrocytes. Cells were routinely >95% viable by trypan blue dye exclusion. To prevent endotoxin contamination, all solutions were passed through a […]. Chemotactic activity was assessed in 48-well microchemotaxis chamber (Neuroprobe, Cabin John, Md.), utilizing the leading front technique. Migration was measured as net movement of neutrophils ([…]) through a nitrocellulose filter (pore size, 3 μm) after 25 min at 37° C. The effect of IL-13 (10^−10, 10^−9, and 5×10^−9 M; recombinant human IL-13, R&D systems, Minneapolis, Minn.) is expressed as the distance traveled, compared to the random migration of neutrophils incubated with RPMI 1640.
# [2] = IL-13 5, 50, 100, 500 ng/rat intratracheal, 48 hours, dose-dependently
Molecule,"MUC5AC synthesis, stimulus alone without neutrophils (NCI-H292 cells)",area of MUC5AC-positive immunostaining ([1]; 4 h after fMLP aerosol (10^-7 M)),AB/PAS-stained area of nasal epithelium ([1]; 4 h after fMLP aerosol (10^-7 M) intranasally for 5 min),leukocyte recruitment into airway epithelium (pathogen-free rats; IL-13 500 ng),start of leukocyte recruitment (pathogen-free rats; IL-13 500 ng),time of maximal leukocyte recruitment (pathogen-free rats; IL-13 500 ng),AB/PAS staining in rat airway epithelium (pathogen-free rats; [2]),MUC5AC staining in rat airway epithelium (pathogen-free rats; [2]),EGFR expression in airway epithelium (pathogen-free rats; instillation of IL-13),staining of airway epithelium with anti-human IL-8 antibody (IL-8-like chemoattractant) (pathogen-free rats; instillation of IL-13),"TNFα expression in rat airway tissue (pathogen-free rats; instillation of IL-13, mainly in infiltrating neutrophils)",neutrophil movement (human neutrophils)
"CSCC[C@H](NC=O)C(=O)N[C@@H](CC(C)C)C(=O)N[C@@H](Cc1ccccc1)C(=O)O [fMLP, N-formyl-methionyl-leucyl-phenylalanine]",no effect,markedly decreased,markedly decreased,–,–,–,–,–,–,–,–,–
B1,–,–,–,time-dependent leukocyte recruitment,approximately 8 hours,≤ 24 h,increased,increased,increased,positive staining,induced,decreased neutrophil movement dose-dependently
